Measurements: PMC5921835
Positions count from the first letter of the chain named. In names and notes the source's numbering stands.

B1: sclareol synthase from Salvia sclarea (SsSS) (Salvia sclarea) (protein)
chain: AKMKENFKREDDKFPTTTTLRSEDIPSNLCIIDTLQRLGVDQFFQYEINTILDNTFRLWQEKHKVIYGNVTTHAMAFRLLRVKGYEVSSEELAPYGNQEAVSQQTNDLPMIIELYRAANERIYEEERSLEKILAWTTIFLNKQVQDNSIPDKKLHKLVEFYLRNYKGITIRLGARRNLELYDMTYYQALKSTNRFSNLCNEDFLVFAKQDFDIHEAQNQKGLQQLQRWYADCRLDTLNFGRDVVIIANYLASLIIGDHAFDYVRLAFAKTSVLVTIMDDFFDCHGSSQECDKIIELVKEWKENPDAEYGSEELEILFMALYNTVNELAERARVEQGRSVKEFLVKLWVEILSAFKIELDTWSNGTQQSFDEYISSSWLSNGSRLTGLLTMQFVGVKLSDEMLMSEECTDLARHVCMVGRLLNDVCSSEREREENIAGKSYSILLATEKDGRKVSEDEAIAEINEMVEYHWRKVLQIVYKKESILPRRCKDVFLEMAKGTFYAYGINDELTSPQQSKEDMKSFVF
B2: sclareol synthase from Salvia sclarea (SsSS) (Salvia sclarea; N431Q) (protein)
chain: B1 chain with N380Q
B3: sclareol synthase from Salvia sclarea (SsSS) (Salvia sclarea; N431I) (protein)
chain: B1 chain with N380I

Substrate: C/C(=C\COP(=O)(O)OP(=O)(O)O)CC[C@@H]1[C@@]2(C)CCCC(C)(C)[C@@H]2CC[C@@]1(C)O
Experiment: steady-state kinetics
Format: biochemical, Salvia sclarea
Conditions: mean ± SE of three experiments; assay conditions only in the supplement

Row | Protein | Km [µM] | kcat [s⁻¹] | kcat/Km [M⁻¹ s⁻¹]
1 | B1 | 7 ± 2 | 0.53 ± 0.04 | 76000
2 | B2 | 10 ± 1 | 0.47 ± 0.02 | 47000
3 | B3 | 6 ± 1 | 0.38 ± 0.02 | 63000
